Measurements from the RNAGym collection of RNA variant scans (doi:10.1093/nar/gkz1192).

B1: CPEB3 Ribozyme (parent)
chain: UAACAGGGGGCCACAGCAGAAGCGUUCACGUCGCAGCCCCUGUCAGAUUCUGGUGAAUCUGCGAAUUCUGCUGUAUAUCUC

Variants of: B1
Assay: self-cleavage, relative activity (ratio to wild type); higher = more cleavage; in vitro, sequencing
Summary of the method: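 After error-prone PCR and barcoding, CPEB3 ribozyme mutant libraries were transcribed with T7 RNA polymerase at 37°C for 5 hours, then given 15 min with DNase I before an EDTA stop, and they cleaved during both steps. Reverse transcription with template switching preceded Illumina sequencing. Relative activity divides a variant's cleaved/total read fraction by the unmutated ribozyme's. At least 5 reads were required per variant, and three batches were averaged.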

Variant | self-cleavage
C14G A65C | 0.32
C14G A65U | 0.26
C14U G22A | 0.41
C14U G22C | 0.18
C14U C40U | 1.07
C14U C40A | 0.24
C14U C32G | 0.1
C14U C32A | 0.2
C14A G63A | 0.93
C14A G63U | 1.14
C14A U43C | 0.83
C14A U43A | 1.24
A15C A47G | 0.85
A15C A47U | 0.17
C14U | 1.15
C14G | 1.08
C14U U25C | 0.28
C14U U25A | 0.44
A15C A57G | 0.43
A15C A57U | 0.54
A15C A35G | 1.08
C14G A15G | 0.79
C14G A15C | 0.37
C14U U41A | 0.24

Variant | self-cleavage
C14U U41C | 1.2
C14U A57C | 0.66
C14U A57G | 1.1
C14A U49C | 0.23
C14U U67C | 0.23
C14U U67A | 0.42
A15C A20U | 0.35
A15C A20C | 0.19
A15C A20G | 0.66
C14U G36A | 0.32
C14A G42A | 0.09
C14U G33A | 0.21
A15C A21G | 0.49
A15C A21C | 0.26
A15C A21U | 0.34
C14G U51C | 1.16
C14U U26A | 0.93
C14U U26C | 0.66
C14G A56G | 1
C14U A56U | 0.5
C14U A56G | 1.23
C14U C59A | 0.28
C14A G53A | 1.38
C14A U67C | 0.14

Variant | self-cleavage
C14G U48C | 0.47
C14A C17G | 0.44
C14A U76C | 0.94
C14G G61A | 0.42
C14A U74C | 1.23
C14A U74A | 1.25
C14U U51C | 1.25
C14U U51A | 1.24
C14U U69C | 0.57
C14A G24C | 0.15
C14A U54G | 1.21
C14A U54A | 1.19
C14U G61C | 0.35
C14U U43G | 0.27
C14U U43C | 1.08
C14U U43A | 1.18
C14U A65U | 0.34
C14U A21G | 0.78
C14U U76C | 1.15
C14G A35G | 1.24
C14U G63A | 1.26
C14A G70U | 0.22
C14A A75U | 1.23
A15C A45C | 0.37

Variant | self-cleavage
A15C A45U | 0.45
A15C A45G | 0.88
C14U U58C | 0.77
C14U C39A | 0.55
C14U C79A | 1.29
C14U U31A | 0.74
C14U A77G | 1.34
C14U A77C | 0.53
C14A A18U | 0.49
C14U A47U | 1.21
C14U A47G | 0.7
C14A A21U | 0.34
C14A A35U | 0.4
C14A A35G | 1.26
C14A U51C | 1.04
C14A U51A | 1.1
C14A C38G | 0.19
C14U G46U | 0.27
C14U G46A | 0.12
C14U U54G | 1.16
C14U U54C | 1.25
C14A U41C | 1.22
A15C A56U | 0.3
A15C A56G | 0.68

Variant | self-cleavage
C14U U72C | 1.21
C14U C29U | 0.72
C14U U66C | 0.8
C14U U66A | 0.52
C14G A20U | 0.26
C14G C40G | 0.1
C14A U26C | 0.63
C14A G73U | 1.26
C14G U66C | 0.29
C14A U69C | 0.4
C14A U69A | 0.48
C14A A15G | 1.1
C14U U74G | 1.27
C14U C23G | 0.12
C14G G53A | 1.19
C14U U48A | 0.71
C14U U48C | 0.97
C14A A28U | 0.76
C14A A20G | 0.96
A15C A18C | 0.35
A15C A18U | 0.32
A15C A18G | 0.41
C14G U25C | 0.17
C14U U60G | 0.41

Variant | self-cleavage
C14U U60A | 0.53
C14G U74C | 0.89
C14G U49C | 0.33
C14U U78C | 1.22
C14U U78G | 1.27
C14G A21U | 0.16
C14G A21G | 0.45
C14U C38A | 0.14
C14A U60C | 0.29
C14A A45U | 0.77
C14A A45G | 1.15
C14A G19A | 0.29
C14U A75U | 1.23
C14U A75G | 1.23
C14U A35C | 1.11
C14U A35U | 1.04
C14U A35G | 1.38
C14A A57U | 1.14
C14A C32U | 0.21
C14A C32A | 0.2
A15C | 0.92
C14U U49C | 0.33
C14A A56G | 1.1
C14U A18U | 0.44

Variant | self-cleavage
C14U A18G | 0.82
C14G U54C | 1.03
C14U A64G | 1.17
C14U A64U | 0.61
C14U A20G | 1.19
C14U A20U | 0.4
A15C A64G | 0.62
C14U G52C | 1.23
C14U C17U | 0.87
C14U A15U | 1.07
C14U A15G | 1.13
C14A U72C | 1.22
C14G C29A | 0.87
C14A A65G | 0.78
C14G U41C | 1.14
C14A U78C | 1.07
A15C A28U | 0.8
C14U A28G | 0.76
C14U A28U | 1.21
C14A U66C | 0.4
C14A U25C | 0.21
C14G U72C | 0.69
C14U U80C | 1.33
